Laboratory results taken from US20250188161A1.

Assays:
Experiment in all cases: flow cytometry, HEK-293T cells co-transfected with mGarp and the HA-tagged TGF-β1 construct
[1] = biological target: HA-tagged mouse-human-mouse chimeric TGF-β1, mouse LAP residues 136-200 replaced by the corresponding human LAP segment, on HEK-293T cells co-transfected with GARP (mouse; human) (UniProt P04202)
[2] = biological target: HA-tagged mouse-human-mouse chimeric TGF-β1, mouse LAP residues 201-222 replaced by the corresponding human LAP segment, on HEK-293T cells co-transfected with GARP (mouse; human) (UniProt P04202)
[3] = biological target: HA-tagged mouse-human-mouse chimeric TGF-β1, mouse LAP residues 223-278 replaced by the corresponding human LAP segment, on HEK-293T cells co-transfected with GARP (mouse; human) (UniProt P04202)
[4] = biological target: HA-tagged mouse-human-mouse chimeric TGF-β1, mouse LAP residues 87-135 replaced by the corresponding human LAP segment, on HEK-293T cells co-transfected with GARP (mouse; human) (UniProt P04202)

Binder	% binding relative to WT TGF-β1 (100 %) [1]	% binding relative to WT TGF-β1 (100 %) [2]	% binding relative to WT TGF-β1 (100 %) [3]	% binding relative to WT TGF-β1 (100 %) [4]
LHT-15 (13E7) (antibody, V domains shown) VH: EVQLVESGGDLVQPGGSLRLSCAASGFTFSSYWMDWVRQAPGKGLEWVSRITNSGGTAFYTDSVEGRFTISRDNAKNTLYLQMNSLKSEDTAVYYCLRYITRAQLMGAWDYWGQGTQVTVSS VL: ATMLTQSPGSLSVVPGESASISCKASQSLVHTDGKTYLSWLLQKPGQRPQLLIYQVSNRASGVPDRFTGSGSGTDFTLKISGVKAEDAGVYYCAQSTYYPYDFGSGTRLEIR				101%
LMT-2 (6D12) (antibody, V domains shown) VH: EVQLVESGGGLVQPGGSLRLSCAASGFTFSNYGVHWVRQAPGKGLEWVSHISAAGISRYYADAVKGRFTMSRDNGKNTLYLQMNGLKSEDTAVYYCAKDRIRSSYEYDSWGQGTQVTVSS VL: LPVLTQLSSMSGSPGQTVTITCTGSSSNIGGGYYLSWYQQLPGTAPKLLIYNANNRASGVPNRFSGSKSGNLASLTITGLQAEDEADYYCGCYDSSLSTGYVFGGGTKLTVL	155%	2%	115%	157%
LHT-22 (15A2) (antibody, V domains shown) VH: ELQLVESGGGLVQPGGSLRLSCAASGFTFDDYTMNWVRQAPGKGLEWVSAIRWNGVTTYYAESMKGRFTVSRDNGNNTLYLQMNSLKAEDTAVYYCAKGGSIDLTYGMDYWGKGTLVTVSS VL: QAVVTQEPSLSVSPGGTVTITCGLSSGSVTRNNYPDWYQQTPGQAPRLLLYNTVARHSGVPSRFSGSISGNKAALTITGAQPEDEAGYYCALYMYTGSNNGRVFGGGTLLTVL		89%		
LHT-18 (14E7) (antibody, V domains shown) VH: QVQLVESGGGLVQPGGSLRLSCAASGFTFSHYWMYWVRQAPGKGLEWVSAINTGGGITYYTDSVKGRFTVSRDNAKNTLYLQMNSLKSEDTAVYYCAKSRYGVVITTTYFGGVDYWGKGTLVTVSS VL: SSALTQPSAVSVSLGQTARITCQGGNFGSYYASWYQQKPGQAPVQVIYGNSNRPSGIPERFSGSSSGDTATLTISGAQAEDEADYYCLSYESSGYAVFGGGTHLTVL		63%		

The next lines start with the values.

% binding relative to WT TGF-β1 (100 %) [1]	% binding relative to WT TGF-β1 (100 %) [2]	% binding relative to WT TGF-β1 (100 %) [3]	% binding relative to WT TGF-β1 (100 %) [4]	Binder
108%	2%	126%	164%	LMT-9 (20G3) (antibody, V domains shown) VH: LQLVESGGGLVQPGGSLRLSCAASGFTFSRSGMAWVRQAPGKGLEWVSAITPGGTATYYANSVKGRVTMSRDNAKNTLYLQMNSLKSEDTAVYYCAKGLVSSGLNGMDYWGKGTLVTVSS VL: QSVLTQLSSMSGSPGQTVTITCTGSSSNIGGGYYLSWYQQLPGTAPKLLIYNTNNRASGVPNRFSGSKTGSLASLTITGLQAEDEADYYCGCYDDSLNTYVFGGGTKLTVL
	126%	99%	158%	LMT-10 (20G4) (antibody, V domains shown) VH: QVQLVESGGGLVQPGGSLTLSCAASGFTFSNYYMTWVRQAPGKGLEWVSSIYSTGSHTYYADSVKGRFTISRDNAKDTLYLQMNDLKSEDTAVYYCAKNIYTYYTAHYAGMDYWGKGTLVTVSS VL: QSALTQPSTVSVSLGQMARITCQGGSLGSYDAHWYQQKPGQAPVLVIHDDNSRPSGIPERFSGSRSGGTATLTISGAQADDEGVYFCHSYDSSANAPVFGGGTELTVL
105%	3%	89%	99%	LMT-12 (14D7) (antibody, V domains shown) VH: EVQLVESGGGLVQPGGSLRLSCAASGFTFSSYYMYWVRQAPGKGLEWVSGTSIGGGSTWYADSVKGRFTISRDNAKNTLYLQMNNLKSEDTAVYYCAKDLNSRSYKGMGDWGQGTQVTVSS VL: QPALTQLSSMSGSPGQTVTITCTGSSSNIGGGYYLNWYQQLPGAAPKLVIYNANNRASGVPDRFSGSKSGNLASLTITGLQAEDEAVYFCGCYDSSLSSVVFGGGTHLTVL
